Measurements reported in patent publication US20110038894A1.

Molecular target: human HLA-A24 and β2-microglobulin (human)
Experiment: MHC-peptide complex formation assay with human HLA-A24 and β2m (procedures of Example 1), sandwich ELISA, relative to positive control peptide

Binder	Relative binding (%)
HSLVGLALL [TAL6 peptide No. 2 of Table 2, …]	61.7%
QYLLDTSTW [TAL6 peptide No. 11 of Table 2, …]	111%
RFVWFFSGI [TAL6 peptide No. 6 of Table 2, …]	91.9%
TFASTEGQY [TAL6 peptide No. 9 of Table 2, …]	49.2%
CYGKCARCI [TAL6 peptide No. 1 of Table 2, …]	126%
HIVEWNVSLF [TAL6 peptide No. 12 of Table 2, …]	28%
FFSGIVGGGL [TAL6 peptide No. 7 of Table 2, …]	72.4%
TFASTEGQYL [TAL6 peptide No. 10 of Table 2, …]	116%
KYASENHLS [TAL6 peptide No. 5 of Table 2, …]	64.6%
GYCVIVAAL [TAL6 peptide No. 8 of Table 2, …]	118%
LYFPNGETKY [TAL6 peptide No. 4 of Table 2, …]	85%

Now from value to binder:

Relative binding (%)	Binder
25.3%	GGIEFILCL [TAL6 peptide No. 16 of Table 2, …]
22.2%	EWNVSLFSIL [TAL6 peptide No. 15 of Table 2, …]
41%	IVEWNVSLF [TAL6 peptide No. 13 of Table 2, …]
74%	EWNVSLFSI [TAL6 peptide No. 14 of Table 2, …]
14.8%	GGIEFILCLI [TAL6 peptide No. 17 of Table 2, …]
